Assay results reported in patent US20250282885A1 (VST BIO, published 2025).

B1: R4M-P1-A10 (antibody, human IgG1, kappa, V domains shown)
VH: EVQLVETGGGVVQPGRSLRLSCAASGFTFSSYAMHWVRQAPGKGLEWVAVISYDGSNKYYADSVKGRFTISRDNSKNTLYLQMNSLRAEDTAVYYCARDRGWADAFDIWGQGTMVTVSS
VL: QAGLTQPPSVSKGLRQTATLTCTGNSNNVGYQGAVWLLQYQGHPPKVLSNRNNDRPSGISERLSASRSGNTASLTITGLQPEDEGDYFCAAWDGSLRGWVFGGGTKLTVLR
B2: R3-P3-A12 (antibody, human IgG1, kappa, V domains shown)
VH: EVQLVESGGGLVQPGRSLRLSCGVSGFTFSSFGMHWVRQAPGKGLEWVAVISNDALHKNYGDSVKGRFTVTRDNSRNTLFLQMTSLRPEDTAVYYCAKDVVRGHTSGSLGSWGQGTLVTVSS
VL: not shown
notes: human IgG1 kappa from the phage campaign
B3: R3-P1-C02 (antibody, human IgG1, kappa, V domains shown)
VH: EVQLVESGGGVVQPGGSLRISCVASEFPFSDFGMHWVRQAPGKGLEWVAFVRSHGSGKYYADSVKGRFTISGDKSKSTLYLQMESLRPDDAAVYYCTTLADVWGQGTTVTVSS
VL: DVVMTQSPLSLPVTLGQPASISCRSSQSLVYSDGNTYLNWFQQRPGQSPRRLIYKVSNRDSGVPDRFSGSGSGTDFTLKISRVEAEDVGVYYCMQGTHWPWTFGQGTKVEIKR

Tests used:
pig Sdc2 [1] = biological target: T1, pig Sdc2 (pig, UniProt F1S0L5 19-145); test: Octet BLI, HIS1K sensor loaded with pigSdc2, antibody as sample; Full R2 0.9632
T1 construct: also called pSdc2
Description: (§1) In order to characterize the binding affinity and in vivo/in vitro functional ability of the twelve clones generated by the previous studies and disclosed in Table 1, a series of assays were performed on each clone. These assays measured the affinity of each antibody clone for human, pig, and mouse Sdc2 using an Octet® binding assay system. Additionally, the functional ability of each clone to inhibit VEGFA-driven permeability (see Santiago, et al. (2021) J Am Heart Assoc. 10(18):e020521) was assessed in two therapeutic settings: a “prevention” study in which three concentrations of antibody (5 μg/ml, 10 μg/ml, 15 μg/ml, 20 μg/ml, and/or 40 μg/ml depending on the study) were pre-incubated for an hour before administration of 100 ng/ml of VEGFA, and a “treatment” study in which 3 hours of pre-treatment with 100 ng/ml VEGFA were followed by treatment with antibody at 20 μg/ml or 40 μg/ml. Results are shown for 8-G17 in FIG. 8 and FIG. 9, 20-H19-AB in FIG. 10 and FIG. 11 (FIG. 12 for monkey ECs), R3-P3-C11 in FIG. 13 and FIG. 14, R4M-P3-E06 in FIG. 15 and FIG. 16, R3-P3-E09 in FIG. 17 and FIG. 18, R3-P1-C02 in FIG. 19 and FIG. 20, R3-P3-A12 in FIG. 21 and FIG. 22, R4M-P3-A12 in FIG. 23 and FIG. 24, and R4M-P1-A10 in FIG. 25 and FIG. 26.

human Sdc2 [2] = biological target: T2, human Sdc2 (human, UniProt P34741 19-144, limits assumed); test: Octet tandem binning; saturating Ab f5 19844-R4M-P3-E06
T2 construct: Antigen of the Octet tandem binning, loaded on biosensors at 100 nM; also called huSdc2; hSdc2
T2 sequence (P34741 19-144 limits assumed): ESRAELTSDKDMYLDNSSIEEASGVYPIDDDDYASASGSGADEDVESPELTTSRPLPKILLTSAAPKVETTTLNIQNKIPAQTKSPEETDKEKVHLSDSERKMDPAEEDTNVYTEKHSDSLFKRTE

human Sdc2 [3] = biological target: T2, human Sdc2; test: Octet tandem binning; saturating Ab f4 19844-R3-P3-C11
Procedure, shortened: (§2)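 Each competing antibody (5 μg/ml, 180 s) is tested on Sdc2-loaded sensors (antigen at 100 nM) already saturated with another antibody (25 μg/ml, 240 s). Its response is expressed relative to binding without prior saturation.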

human Sdc2 [4] = biological target: T2, human Sdc2; test: Octet tandem binning; saturating Ab m2 19838-8G17-A
human Sdc2 [5] = biological target: T2, human Sdc2; test: Octet tandem binning; saturating Ab m6 19838-20H19-AA (marked non-binding ligand)
human Sdc2 [6] = biological target: T2, human Sdc2; test: Octet tandem binning; saturating Ab m1 19838-20H19-AB
human Sdc2 [7] = biological target: T2, human Sdc2; test: Octet tandem binning; saturating Ab f12 19838-6-N03-A
human Sdc2 [8] = biological target: T2, human Sdc2; test: Octet tandem binning; saturating Ab f6 19844-R3-P3-E09
Procedure, shortened: as §2

human Sdc2 [9] = biological target: T2, human Sdc2; test: Octet tandem binning; saturating Ab f7 19844-R3-P3-A12
human Sdc2 [10] = biological target: T2, human Sdc2; test: Octet BLI, heading box over the sensorgram
mouse Sdc2 [11] = biological target: T3, mouse Sdc2 (mouse, UniProt P43407 19-145, limits assumed); test: Octet BLI, heading box over the sensorgram
T3 construct: Immobilised on Maxisorp plates for panning and ELISA; also called mSdc2; moSdc2
T3 sequence (P43407 19-145 limits assumed): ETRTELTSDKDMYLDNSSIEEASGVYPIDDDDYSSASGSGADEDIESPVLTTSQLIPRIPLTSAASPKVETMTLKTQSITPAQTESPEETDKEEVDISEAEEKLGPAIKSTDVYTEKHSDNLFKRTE

human Sdc2 [12] = biological target: T2, human Sdc2; test: Octet tandem binning; saturating Ab m5 19844-R4M-P3-A12 (row boxed, self-self >0.09)
Procedure, shortened: as §2

human Sdc2 [13] = biological target: T2, human Sdc2; test: Octet tandem binning; saturating Ab f10 19838-10-I12-A
human Sdc2 [14] = biological target: T2, human Sdc2; test: Octet tandem binning; saturating Ab f8 19844-R4M-P2-C02
human Sdc2 [15] = biological target: T2, human Sdc2; test: Kd (human Sdc2), summary table of the mAbs
pig Sdc2 [16] = biological target: T1, pig Sdc2; test: Octet BLI, heading box over the sensorgram; the box prints nm, the table gives 2.71E-09 M
human Sdc2 [17] = biological target: T2, human Sdc2; test: Octet tandem binning; saturating Ab f11 19838-20-H19-A
human Sdc2 [18] = biological target: T2, human Sdc2; test: Octet BLI, HIS1K sensor loaded with huSdc2, antibody as sample; Full R2 0.9628
Description: as §1

human Sdc2 [19] = biological target: T2, human Sdc2; test: Octet tandem binning; saturating Ab f9 19838-6-E17-A
human Sdc2 [20] = biological target: T2, human Sdc2; test: Octet tandem binning; Buffer in place of a saturating Ab
human Sdc2 [21] = biological target: T2, human Sdc2; test: Octet tandem binning; saturating Ab f3 19838-6N03-A
[22] = biological target: human Sdc2 on Human Umbilical Vein Endothelial Cells (HUVEC) (human, UniProt P34741 19-201); test: cell-based or functional assay
Sequence of human Sdc2 on Human Umbilical Vein Endothelial Cells (HUVEC) (P34741 19-201 limits assumed): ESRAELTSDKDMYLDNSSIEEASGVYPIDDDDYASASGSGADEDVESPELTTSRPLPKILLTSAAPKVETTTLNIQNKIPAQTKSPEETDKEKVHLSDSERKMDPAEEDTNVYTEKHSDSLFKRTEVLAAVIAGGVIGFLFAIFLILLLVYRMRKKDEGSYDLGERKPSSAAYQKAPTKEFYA

human Sdc2 [23] = biological target: T2, human Sdc2; test: Octet tandem binning; saturating Ab m8 19844-R4M-P1-B01 (marked non-binding ligand)
human Sdc2 [24] = biological target: T2, human Sdc2; test: Octet tandem binning; saturating Ab m3 19844-R3-P1-C02 (row boxed, self-self >0.09)
human Sdc2 [25] = biological target: T2, human Sdc2; test: Octet tandem binning; saturating Ab m7 19844-R3-P1-E07
human Sdc2 [26] = biological target: T2, human Sdc2; test: Octet BLI, heading box over the sensorgram; remark: listed apart in the source
human Sdc2 [27] = biological target: T2, human Sdc2; test: Octet BLI, HIS1K sensor loaded with huSdc2, antibody as sample; Full R2 0.9943
human Sdc2 [28] = biological target: T2, human Sdc2; test: Octet tandem binning; saturating Ab m4 19844-R4M-P1-A10
pig Sdc2 [29] = biological target: T1, pig Sdc2; test: Octet BLI, HIS1K sensor loaded with pigSdc2, antibody as sample; Full R2 0.9708
pig Sdc2 [30] = biological target: T1, pig Sdc2; test: Octet BLI, heading box over the sensorgram; the box prints nm, the table gives 4.74E-09 M
human Sdc2 [31] = biological target: T2, human Sdc2; test: Octet BLI, heading box over the sensorgram; remark: listed apart in the source
mouse Sdc2 [32] = biological target: T3, mouse Sdc2; test: Octet BLI, heading box over the sensorgram; remark: listed apart in the source
human Sdc2 [33] = biological target: T2, human Sdc2; test: Octet BLI, HIS1K sensor loaded with huSdc2, antibody as sample; Full R2 0.9663
mouse Sdc2 [34] = biological target: T3, mouse Sdc2; test: Octet BLI, HIS1K sensor loaded with moSdc2, antibody as sample (curves 111.1, 37, 12.3, 4.1, 1.4, unit inferred); Full R2 0.8674
mouse Sdc2 [35] = biological target: T3, mouse Sdc2; test: Octet BLI, HIS1K sensor loaded with moSdc2, antibody as sample; Full R2 0.8674

Binder | raw competing-Ab binding signal (human Sdc2 [2]) | raw competing-Ab binding signal (human Sdc2 [3]) | raw competing-Ab binding signal (human Sdc2 [4]) | raw competing-Ab binding signal (human Sdc2 [5]) | raw competing-Ab binding signal (human Sdc2 [6]) | raw competing-Ab binding signal (human Sdc2 [7]) | raw competing-Ab binding signal (human Sdc2 [8]) | raw competing-Ab binding signal (human Sdc2 [9]) | raw competing-Ab binding signal (human Sdc2 [12]) | raw competing-Ab binding signal (human Sdc2 [13]) | raw competing-Ab binding signal (human Sdc2 [14]) | Kd (human Sdc2 [15]) [nM] | raw competing-Ab binding signal (human Sdc2 [17]) | raw competing-Ab binding signal (human Sdc2 [19]) | raw competing-Ab binding signal (human Sdc2 [20]) | raw competing-Ab binding signal (human Sdc2 [21]) | % Inhibition of VEGFA-induced permeability at 24hrs (20ug/ml) [22] [%] | raw competing-Ab binding signal (human Sdc2 [23]) | raw competing-Ab binding signal (human Sdc2 [24]) | raw competing-Ab binding signal (human Sdc2 [25]) | other results
B1 | 0.358 | 0.193 | 0.377 | 0.32 | 0.439 | 0.406 | 0.203 | 0.246 | 0.302 | 0.418 | 0.211 | 1.82 | 0.444 | 0.34 | 0.337 | 0.362 | 100 | 0.355 | 0.255 | 0.353 | Kd (pig Sdc2 [1]): 2.71 nM; koff (pig Sdc2 [1]): 0.00459 s⁻¹; kon (pig Sdc2 [1]): 1.69e+06 M⁻¹ s⁻¹; Kd (human Sdc2 [10]): ~1.82 nM; Kd (mouse Sdc2 [11]): ~1.85 nM; Kd (pig Sdc2 [16]): ~2.71 nM; Kd (human Sdc2 [18]): 1.82 nM; koff (human Sdc2 [18]): 0.00663 s⁻¹; kon (human Sdc2 [18]): 3.65e+06 M⁻¹ s⁻¹
B2 | 0.618 | 0.0654 | 0.548 | 0.636 | 0.459 | 0.794 | 0.322 | – | 0.61 | 0.3 | 0.562 | 2.8 | 0.529 | 0.594 | 0.599 | 0.704 | 90 | 0.619 | 0.562 | 0.618 | Kd (human Sdc2 [26]): ~2.8 nM; Kd (human Sdc2 [27]): 2.8 nM; koff (human Sdc2 [27]): 0.00131 s⁻¹; kon (human Sdc2 [27]): 469000 M⁻¹ s⁻¹; raw competing-Ab binding signal (human Sdc2 [28]): 0.539
B3 | -0.0088 | 0.0466 | 0.207 | 0.254 | 0.27 | 0.233 | 0.0516 | 0.103 | 0.231 | 0.235 | 0.0877 | 2.81 | 0.286 | 0.227 | 0.223 | 0.221 | 100 | 0.204 | – | 0.24 | Kd (pig Sdc2 [29]): 4.74 nM; koff (pig Sdc2 [29]): 0.0103 s⁻¹; kon (pig Sdc2 [29]): 2.16e+06 M⁻¹ s⁻¹; Kd (pig Sdc2 [30]): ~4.74 nM; Kd (human Sdc2 [31]): ~2.81 nM; Kd (mouse Sdc2 [32]): ~2.44 nM; Kd (human Sdc2 [33]): 2.81 nM; koff (human Sdc2 [33]): 0.00946 s⁻¹; kon (human Sdc2 [33]): 3.36e+06 M⁻¹ s⁻¹; Kd (mouse Sdc2 [34]): 2.44 nM; koff (mouse Sdc2 [35]): 0.114 s⁻¹; raw competing-Ab binding signal (human Sdc2 [28]): 0.126
